Values quoted from earlier work in PMC10368991.
pKd: −log10 of the molar value.

Biological target: LolB (Escherichia coli) (UniProt P61320)
Sequence (P61320 22-207): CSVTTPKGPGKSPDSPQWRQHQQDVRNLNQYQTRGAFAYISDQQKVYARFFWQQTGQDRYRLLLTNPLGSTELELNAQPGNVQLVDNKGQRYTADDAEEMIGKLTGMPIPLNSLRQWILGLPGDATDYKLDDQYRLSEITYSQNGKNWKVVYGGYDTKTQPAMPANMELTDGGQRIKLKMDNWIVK

Chain of LolA (P61316 22-203): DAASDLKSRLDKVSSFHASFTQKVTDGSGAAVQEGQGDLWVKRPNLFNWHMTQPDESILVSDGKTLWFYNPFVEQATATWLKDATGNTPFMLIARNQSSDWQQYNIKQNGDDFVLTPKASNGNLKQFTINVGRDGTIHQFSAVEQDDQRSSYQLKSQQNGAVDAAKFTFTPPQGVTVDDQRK

## LolA (from UniProt P61316)
  pKd: 4.50
